In patent US20250289894A1 (MORPHIC THERAPEUTIC, published 2025):
Changes are numbered by the printed parent chain. Where two headings read alike, the source gives them in different places.

T1: Mouse Leg α7 (mouse, UniProt Q61738 679-1076, limits assumed)
T1 construct: domain: Leg α7
T1 sequence (looked up): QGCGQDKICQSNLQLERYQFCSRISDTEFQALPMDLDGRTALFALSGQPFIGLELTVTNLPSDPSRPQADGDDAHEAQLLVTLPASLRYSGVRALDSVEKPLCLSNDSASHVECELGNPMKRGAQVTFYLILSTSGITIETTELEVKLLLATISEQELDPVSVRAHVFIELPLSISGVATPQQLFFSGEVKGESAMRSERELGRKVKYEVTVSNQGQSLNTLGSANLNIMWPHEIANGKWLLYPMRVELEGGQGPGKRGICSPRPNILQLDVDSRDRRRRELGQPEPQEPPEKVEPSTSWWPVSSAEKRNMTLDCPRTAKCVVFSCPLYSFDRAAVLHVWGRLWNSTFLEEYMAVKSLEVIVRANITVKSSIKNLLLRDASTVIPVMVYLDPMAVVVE

T2: Human Leg α7 (human, UniProt Q13683 679-1078)
T2 construct: also called human α7 leg; leg domain of human α7
T2 sequence: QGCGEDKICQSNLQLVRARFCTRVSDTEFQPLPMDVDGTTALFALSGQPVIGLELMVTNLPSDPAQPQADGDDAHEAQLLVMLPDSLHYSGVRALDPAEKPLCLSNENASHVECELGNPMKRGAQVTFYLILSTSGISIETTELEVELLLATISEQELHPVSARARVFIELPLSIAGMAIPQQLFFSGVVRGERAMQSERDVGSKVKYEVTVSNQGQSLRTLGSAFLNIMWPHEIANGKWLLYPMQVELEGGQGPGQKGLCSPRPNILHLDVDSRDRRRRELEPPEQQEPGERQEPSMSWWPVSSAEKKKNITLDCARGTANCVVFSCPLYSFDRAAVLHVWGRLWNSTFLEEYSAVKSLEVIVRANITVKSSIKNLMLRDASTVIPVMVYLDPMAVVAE

T3: Cynomolgus Monkey Leg α7 (cynomolgus monkey, UniProt A0A2K5UNI0 679-1078)
T3 construct: domain: Leg α7
T3 sequence: T2 sequence with T22A, V36A, I180T, R220K, Q246R, T384I

T4: human α7 calf-1 protein (human, UniProt Q13683 688-848)
T4 construct: also called Calf-1 domain
T4 sequence: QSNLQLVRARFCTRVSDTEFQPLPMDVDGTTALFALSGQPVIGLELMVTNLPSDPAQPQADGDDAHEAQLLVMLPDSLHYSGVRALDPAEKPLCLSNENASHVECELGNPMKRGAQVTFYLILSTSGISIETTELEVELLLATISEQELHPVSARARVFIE

B1: Ab8 (antibody, V domains shown)
VH: QVPLQQSGPQLVRPGASVKISCKASGYSFTRYWMHWVKQRPGQGLDWIGKIDPSDSETRLNQEFRDKATLTVDKSSSTAYLQLSSPTSEDSAVYYCARGGYFGEGWYFDVWGAGTTVTVSS
VL: DVVMTQIPLSLPVSLGDQASISCRSSQSLVHRNGNTYLHWYLQKPGQSPKLLIYKVSNRFSGVPDRFSGSGSGTDFTLKISRVEAEDLGVYFCSQSTHVPWTFGGGTKLEIK
notes: Mouse anti-α7β1 antibody (hybridoma, α7 knock-out mouse); also called AbS
B2: Ab2 (antibody, V domains shown)
VH: EVQLVESGGGLVKPGGSLRLSCAASGFTFSSYTMNWVRQAPGKGLEWVSSISIVGNYIYYADSLKGRFTISRDNAKNSLYLQMNSLRAEDTAVYYCARRKWEHDAFDIWGQGTMVTVSS
VL: SSELTQDPAVSVALGQTVRITCQGDSLRSYYASWYQQKPGQAPVLVIYGKNNRPSGIPDRFSGSSSGNTASLTITGAQAEDEADFYCTSRDNSGNHVVFGGGTKLTVL
notes: Human anti-α7β1 antibody (hybridoma, human transgenic mouse); Ab28 and Ab29 are full chains with the same CDRs

Columns and labels:
Mouse α7β1 [1] = molecular target: T5, Mouse α7β1 (mouse, UniProt Q61738 34-1179; P09055 21-798); assay: cell binding, mouse α7β1 cells, with Mn-BOP
T5 construct: whole, on cells; also called mouse α7β1 cells
T5 sequence (Q61738 34-1179, chain 1 of 2): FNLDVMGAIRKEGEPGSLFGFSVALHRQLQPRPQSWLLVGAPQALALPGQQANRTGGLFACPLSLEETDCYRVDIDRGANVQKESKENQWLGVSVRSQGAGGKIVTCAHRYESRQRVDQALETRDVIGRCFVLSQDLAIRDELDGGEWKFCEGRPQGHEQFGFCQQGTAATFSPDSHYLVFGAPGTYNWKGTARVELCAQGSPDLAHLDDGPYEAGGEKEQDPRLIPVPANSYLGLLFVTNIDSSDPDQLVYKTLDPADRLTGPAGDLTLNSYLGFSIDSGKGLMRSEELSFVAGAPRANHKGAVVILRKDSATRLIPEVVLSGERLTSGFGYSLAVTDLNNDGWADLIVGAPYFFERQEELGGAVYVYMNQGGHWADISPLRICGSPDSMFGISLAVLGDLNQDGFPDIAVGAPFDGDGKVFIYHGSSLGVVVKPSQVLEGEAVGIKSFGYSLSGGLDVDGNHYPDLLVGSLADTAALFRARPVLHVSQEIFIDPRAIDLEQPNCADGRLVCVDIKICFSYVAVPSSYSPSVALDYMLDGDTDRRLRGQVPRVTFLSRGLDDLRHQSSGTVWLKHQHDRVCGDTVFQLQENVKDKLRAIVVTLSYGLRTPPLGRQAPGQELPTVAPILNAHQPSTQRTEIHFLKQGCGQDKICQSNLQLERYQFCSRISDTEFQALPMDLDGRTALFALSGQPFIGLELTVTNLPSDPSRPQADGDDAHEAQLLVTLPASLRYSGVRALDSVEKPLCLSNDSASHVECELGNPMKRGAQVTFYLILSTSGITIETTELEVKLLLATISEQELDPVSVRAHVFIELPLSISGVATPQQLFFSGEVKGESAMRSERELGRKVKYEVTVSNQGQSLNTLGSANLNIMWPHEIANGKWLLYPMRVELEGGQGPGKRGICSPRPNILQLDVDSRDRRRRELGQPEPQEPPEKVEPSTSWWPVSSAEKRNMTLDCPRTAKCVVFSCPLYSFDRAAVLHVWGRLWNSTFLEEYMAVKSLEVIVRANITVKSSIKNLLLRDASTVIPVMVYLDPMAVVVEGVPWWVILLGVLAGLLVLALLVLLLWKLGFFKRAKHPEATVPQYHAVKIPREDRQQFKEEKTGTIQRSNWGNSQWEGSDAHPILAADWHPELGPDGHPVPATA
T5 sequence (P09055 21-798, chain 2 of 2): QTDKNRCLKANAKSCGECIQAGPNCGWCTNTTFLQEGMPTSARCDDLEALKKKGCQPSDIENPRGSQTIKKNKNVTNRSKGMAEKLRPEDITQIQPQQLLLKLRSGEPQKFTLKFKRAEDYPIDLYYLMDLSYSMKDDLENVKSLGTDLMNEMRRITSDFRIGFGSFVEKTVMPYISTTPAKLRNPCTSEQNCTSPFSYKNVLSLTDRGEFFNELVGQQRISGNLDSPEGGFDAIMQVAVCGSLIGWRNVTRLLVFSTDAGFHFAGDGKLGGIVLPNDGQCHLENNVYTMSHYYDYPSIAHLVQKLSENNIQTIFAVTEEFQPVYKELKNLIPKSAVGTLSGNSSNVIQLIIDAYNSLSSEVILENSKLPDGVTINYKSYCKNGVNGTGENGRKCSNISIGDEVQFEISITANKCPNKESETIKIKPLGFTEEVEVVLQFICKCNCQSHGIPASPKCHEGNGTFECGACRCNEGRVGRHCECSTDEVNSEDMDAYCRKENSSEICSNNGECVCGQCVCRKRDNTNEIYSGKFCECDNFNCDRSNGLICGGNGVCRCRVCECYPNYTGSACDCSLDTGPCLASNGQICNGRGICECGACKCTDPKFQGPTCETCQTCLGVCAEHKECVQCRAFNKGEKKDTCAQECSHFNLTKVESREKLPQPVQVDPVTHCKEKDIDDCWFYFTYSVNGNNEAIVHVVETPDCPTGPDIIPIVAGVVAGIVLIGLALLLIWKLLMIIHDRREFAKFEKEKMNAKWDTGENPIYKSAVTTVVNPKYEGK

Mouse Leg α7 = molecular target: T1, Mouse Leg α7; assay: SPR
[2] = molecular target: T6, Cynomolgus Monkey α7β1 Ecto Domain (cynomolgus monkey, UniProt A0A2K5UNI0 34-1082; H9FU31 21-728); assay: SPR
T6 construct: extracellular domain; Heterodimer

Human Leg α7 = molecular target: T2, Human Leg α7; assay: SPR
Cynomolgus Monkey Leg α7 = molecular target: T3, Cynomolgus Monkey Leg α7; assay: SPR
Mouse α7β1 [3] = molecular target: T5, Mouse α7β1; assay: cell-based or functional assay
Cynomolgus Monkey α7β1 = Cynomolgus Monkey α7β1 (cynomolgus monkey, UniProt A0A2K5UNI0 34-1181; H9FU31 21-798); assay: cell-based or functional assay
Human α7β1 (human) [4] = molecular target: Human α7β1 (human) (UniProt Q13683); assay: cell binding, DMD myoblast cells, with Mn-BOP
[5] = molecular target: Human α7β1 Ecto Domain (human) (UniProt Q13683); assay: SPR
[6] = molecular target: Mouse α7β1 Ecto Domain (mouse) (UniProt Q61738); assay: SPR
[7] = molecular target: Human α7β1 Ecto Domain (human) (UniProt Q13683); assay: cell-based or functional assay
Human α7β1 (human) [8] = molecular target: Human α7β1 (human) (UniProt Q13683); assay: cell-based or functional assay
[9] = molecular target: Mouse α7β1 Ecto Domain (mouse) (UniProt Q61738); assay: cell-based or functional assay
Human α7β1 (human) [10] = molecular target: Human α7β1 (human) (UniProt Q13683); assay: cell-based or functional assay; remark: listed apart in the source
human α7 calf-1 protein = molecular target: T4, human α7 calf-1 protein; assay: binding ELISA, panel 'Human a7 Calf1 vs Ab2'

Binder | Kd [2] [nM] | Kd (Human Leg α7) [nM] | Kd (Cynomolgus Monkey Leg α7) [nM] | EC50 (nM), Cell Adhesion Assay (Cynomolgus Monkey α7β1) [nM] | Emax (%*), Cell Adhesion Assay (Cynomolgus Monkey α7β1) [%] | EC50 (Human α7β1 (human) [4]) [nM] | Kd [5] [nM] | Emax (%*), Solid Phase Assay [7] [%] | EC50 (nM), ECIS, DMD-1 myoblast cells (Human α7β1 (human) [8]) [nM] | EC50 (nM), ECIS, DMD-2 myoblast cells (Human α7β1 (human) [8]) [nM] | EC50 (nM), ECIS, Non-DMD myoblast cells (Human α7β1 (human) [8]) [nM] | Emax (% of RefAb1), ECIS, DMD-1 myoblast cells (Human α7β1 (human) [8]) | Emax (% of RefAb1), ECIS, DMD-2 myoblast cells (Human α7β1 (human) [8]) | Emax (% of RefAb1), ECIS, Non-DMD myoblast cells (Human α7β1 (human) [8]) | Emax (%*), Cell Adhesion Assay (Human α7β1 (human) [8]) [%] | other results
B1 | 225 | 25 | 32.3 | 1.69 | 102 | 32.6 | 184 | 89 | 10 | 32 | 41.6 | 264 % of RefAb1 | 130 % of RefAb1 | 100 % of RefAb1 | 117 | EC50 (Mouse α7β1 [1]): 22.6 nM; Kd (Mouse Leg α7): 1.42 nM; EC50 (nM), Cell Adhesion Assay (Mouse α7β1 [3]): 3.82 nM; Emax (%*), Cell Adhesion Assay (Mouse α7β1 [3]): 144%; Kd [6]: 5.46 nM; EC50 (nM), Solid Phase Assay (6xHis α7β1 ectodomain on coated laminin-221) [7]: 0.77 nM; EC50 (nM), Cell Adhesion Assay (K562 cells expressing α7β1 on laminin-221) (Human α7β1 (human) [8]): 3.94 nM; EC50 (nM), Solid Phase Assay [9]: 1.55 nM; Emax (%*), Solid Phase Assay [9]: 148%
B2 | 23 | 1.58 | 19.4 | 3.31 | 115 | 41.1 | 5.69 | 97 | 14.8 | 41.1 | 23.3 | 289 % of RefAb1 | 240 % of RefAb1 | 124 % of RefAb1 | 122 | binding result (Mouse Leg α7): no binding; EC50 (nm), a7b1 activation assay (Human α7β1 (human) [10]): 2.8 nM; EC50 (ug/mL), a7b1 activation assay (Human α7β1 (human) [10]): 0.42 µg/mL; Emax (% TS2/16), a7b1 activation assay (Human α7β1 (human) [10]): 100 % TS2/16; Emax (F.C.), a7b1 activation assay (Human α7β1 (human) [10]): 2.09 F.C.; EC50 (nM), Solid Phase Assay [7]: 0.4 nM; EC50 (nM), Cell Adhesion Assay (Human α7β1 (human) [8]): 5.1 nM; EC50 (nM), a7b1 activation assay (Human α7β1 (human) [8]): 2.91 nM; EC50 (ug/mL), a7b1 activation assay (Human α7β1 (human) [8]): 0.44 µg/mL; Emax (% TS2/16), a7b1 activation assay (Human α7β1 (human) [8]): 117 % TS2/16; Emax (F.C.), a7b1 activation assay (Human α7β1 (human) [8]): 2.75 F.C.; binding result (human α7 calf-1 protein): no binding
